Data published in PMC8642242.

Target: SARS-CoV-1 (Sino 1-11) RBD, His-tagged (SARS-CoV-1)

WRAIR-2063 (human IgG1) (antibody)
IC50 of neutralization of SARS-CoV-1 (Sino 1-11) pseudovirus: 0.095 µg/mL
